Data: patent US11905559B2, “Materials and methods for controlling gene expression” (priority 2016, dated 2024)
Changes are numbered by the printed parent chain. Numbers in names are those of the source. Where “and” joins values, the source holds several entries; their conditions need not be identical. Equal entries are not always repeated.

Legend:
[1] = Isothermal titration calorimetry (ITC); assay type: binding
Protocol: For ITC experiments, wild-type G-aptamer and the mutant RNAs were synthesized by in vitro transcription of the DNA template and purified by denaturing polyacrylamide gel electrophoresis (PAGE). The ligand guanine was introduced in the syringe, while the RNA into the sample cell at a final concentration of 10 μM and 1 μM respectively. The concentrations were determined by absorbance reading using ε260=12010 M^−1 cm^−1 (guanine) and ε260=711400 M^−1 cm^−1 (RNA). The buffer in the syringe and the sample cell contained 50 mM K^+ Hepes (pH 7.5), 100 mM KCl, and 10 mM MgCl2. Binding reactions were performed at 30° C. on a MicroCal iTC200 instrument (Malvern) with a reference power of 6 μcal/sec, an initial delay of 60 secs and a stirring speed of 750 rpm. Guanine was titrated into the sample cell in 16 injections (2.5 μl each). The injection rate was 0.5 μl/sec and the spacing between the injections was maintained at 120 sec. Data was baseline corrected and fitted to a single-site binding model to obtain association constant (KA), stoichiometry (n) and binding enthalpy, ΔH. The dissociation constant (KD) and the binding free energy, ΔG was obtained from the fitted parameters using the following relations. All data analysis was performed using the Origin ITC software.
The ITC results are reported as mean±standard deviation from three independent experiments.

[2] = Constant-force (CF) single-molecule optical tweezers folding assay of guanine-aptamer RNAs in guanine buffer; assay type: physicochemical; conditions: for Folding rate kf / Transition distance ΔX / Unfolding rate ku / ΔG (0): 200 nM G; for ΔG (0): zero force
Excerpt: The aptamer folding was monitored in real time using a constant-force (CF) assay. Equilibrium sampling techniques provide unprecedented insights into the rare events in the course of folding that are otherwise difficult to identify. The technique also allows for determination of the kinetic rates that has not been fully investigated in the guanine riboswitch. The relative dynamics of the helices have been investigated in ensemble and smFRET experiments, which indicated a non-dynamic P1-P3, upon which the P2 helix switches conformations. As shown in FIG. 6A (left panel), the RNA oscillated between the linear and the hairpin conformations (E↔D↔C) at 13 pN. The distances ΔXED=7.1±0.4 nm and ΔXDC=7.9±0.4 nm correspond to the folding of a 17±1 nt (P2) and 19±1 nt (P3) respectively (FIGS. 7A-B). The conversion of distances to nucleotides in CF assay are described in Table 2.
A miniaturized dual beam optical tweezers instrument was constructed with a sampling rate of 0.4, 4 and 40 kHz. Typically, in the tweezers set up (FIGS. 2A-E), a single-molecule of RNA is held between two beads via ˜550 nucleotide (nt) long Handles A and B. Preparation of Handles and the RNA is described in the section above. The streptavidin coated polystyrene bead (diameter 1.5-1.9 μm, Spherotech Inc.) is fixed on a micropipette via suction, and the anti-digoxigenin coated bead (diameter 4.0-4.9 μm, Spherotech Inc.) is held in the dual counter-propagating laser beam. The trap stiffness, K is measured at 0.04-0.06 pN/nm from the power spectrum analysis of the Brownian motion of the trapped bead. For power spectrum analysis, a polystyrene bead with diameter ˜4.6 μm is trapped in the counter-propagating laser beam in aqueous buffer with a fixed trap position. […] The average from 10 beads yielded K˜0.049±0.0008 pN/nm, and the stoke's drag coefficient, y=0.0364±0.0002 pN. s/μm. […] However, the autocorrelation time (τ0) defined as the τ1=1/2πfc as described by Zoldak et al., “Ultrafast folding kinetics and cooperativity of villin headpiece in single-molecule force spectroscopy”. Proc. Natl. Acad. Sci. U.S.A 110, 18156 (2013) sets the detection limit for the observable kinetics, which is different from the sampling frequencies. […] The ACF for the time series of force signal, Fi, with sampling rate δ and N data points, is calculated as,
In a constant-force (CF) experiment, the RNA is held at a preset force through feedback control. The preset force typically fluctuated around the mean with a standard deviation ±0.15 pN. In this mode, data is recorded from 4-40 kHz to capture the fast intermediates. The plots are shown as extension vs. time (as in FIG. 6A). In force-jump (FJ) assay, the force is suddenly jumped from one force to another, and then held constant thereafter, as shown in FIGS. 23A-B.
All FR, CF and FJ experiments were carried out at an ambient temperature, 25±0.5° C. The buffer in the microfluidics contained 10 mM Tris-HCl, pH 7.5 at 25° C., 250 mM NaCl, 3 mM MgCl2, and purine concentrations as indicated in wild-type aptamer. Unless stated otherwise, Mg^2+ concentration in the buffer was maintained at 3 mM in all experiments. The buffer in mutant m1 contained 5 mm Mg^2+ and 1 μM G, and in m3 contained 5 mM Mg^2+ and 200 nM Guanine. For the remaining m2, m4, m5 and m6 mutants, the buffer in single-molecule experiments was supplemented only with 3 mM Mg^2+ and 200 nM Guanine.
In the force-ramp experiment, the trap was moved away (pull cycle) from the micropipette at 200 nm/sec, which corresponded to a loading rate of 7-8 pN/sec. This movement of the trap exerted a tension at the ends of the tethered RNA aptamer. […] In the constant-force (CF) experiment, the RNA was held at a preset force (FIG. 6A). The loading rate in CF experiments was zero. The preset force typically fluctuated around the mean with standard deviation ±0.15 pN. […]

lac Z expression = experiment: β-galactosidase reporter assay (xpt-lacZ fusion); assay type: cell-based, B. subtilis; conditions: presence and absence of guanine; B. subtilis
Protocol: Kissing-loop mutants were analyzed to determine whether they can exert riboswitch activities by controlling transcription termination, given that the guanine binding was retained in all of them. To test this, a β-galactosidase reporter assay was performed in B.subtilis. […] The gene expression is repressed in wild-type due to the transcription termination in the presence of guanine. […] The fast kissing dynamics between the L2-L3 probably have a stabilizing effect on P1, and therefore an increase in the transcription termination is observed. […] This underscores that the L2-L3 dynamics are directly involved in the P1-helix formation, which affects the terminator hairpin downstream that ultimately results in an alteration of the riboswitch activities.
To assess if the aptamer mutants can exert a transcriptional control similar to the previously reported wild-type xpt-pbuX riboswitch, a xpt-lacZ fusion was constructed as described by Mandal et al., “Riboswitches control fundamental biochemical pathways in Bacillus subtilis and other bacteria”. Cell 113, 577-586 (2003). Briefly, nts −121 to +197 relative to the transcriptional start site of the xpt-pbuX operon from B. subtilis 1A1 (BGSC, Columbus, Ohio) was PCR amplified and cloned upstream of the lacZ reporter gene into pDG1661 vector. After confirming the cloned sequence, plasmid variants were integrated into the amyE locus of the 1A1 strain. Transformants were selected for double markers, specifically for chloramphenicol (5 μg/ml) resistance and sensitivity to spectinomycin (100 μg/ml). Selected B. subtilis colonies were subsequently grown in minimal media (25 g/L K2HPO4·3H2O, 6 g/L KH2PO4, 1 g/L sodium citrate, 0.2 g/l MgSO4·7H2O, 2 g/L Na2SO4, 50 μM FeCl3, 2 μM MnCl2, 50 μg/ml L-Tryptophan, 50 μg/ml L-Lysine, 50 μg/ml L-Methionine, 0.4 g/100 ml glucose, and 0.2 g/100 ml glutamate) at 37° C. with vigorous shaking. Purines were added at a final concentration of 0.1 mg/ml. Cells were harvested at mid-logarithmic growth phase (A600˜0.1-0.4), and resuspended in the above buffer for the reporter assay. The color development was recorded by measuring absorbance, A420 at the end of the reaction with appropriate controls. Data is represented in Miller Units calculated from the following relation:
[formula] where Δt is the total duration taken in the substrate cleavage by […], measured as absorbance, A420. The Miller Units shown in FIG. 4A represents mean±standard deviation from 3 independent experiments, wherein each independent experiment was performed in duplicate.

[3] = transition C′A (merged C′B and BA), F 6.1 pN, 5 mM Mg^2+
[4] = transition C′A (merged C′B and BA), F 6.1 pN, 3 mM Mg^2+
[5] = transition BA (P1 folding), F 8.5 pN, 3 mM Mg^2+
[6] = transition C′B (L2-L3 folding), F 8.5 pN, 3 mM Mg^2+
[7] = transition DC (P3 folding), F 12.0 pN, 3 mM Mg^2+
[8] = transition ED (P2 folding), F 13.5 pN, 3 mM Mg^2+

B1: m3: m3 mutant guanine sensing aptamer RNA (SEQ ID NO: 4); G38 replaced with adenine in the L2 loop (nucleic acid)
chain: CACUCAUAUAAUCGCGUGGAUAUGACACGCAAGUUUCUACCGGGCACCGUAAAUGUCCGACUAUGGGUG
modifications: RNA, backbone and methylation of C not given here
notes: G38 replaced with adenine in the L2 loop
[1]
  KD off relative to wild-type: ~18 fold
[2]; transition C′A (merged C′B and BA), 5 mM Mg^2+, 200 nM G (rates at 6.1 pN)
  Equilibrium force F^eq: 6 pN and 6.1 ± 0.02 pN
[2]; [3]
  Folding rate kf: 0.8 ± 0.05 s⁻¹
  Transition distance ΔX: 12.5 ± 0.4 nm
  Unfolding rate ku: 0.69 ± 0.05 s⁻¹
[2]; transition C′A (merged C′B and BA), from data at 6.1 pN, 5 mM Mg^2+
  ΔG (0): −12.7 ± 0.6 kBT
Lac Z expression
  lac Z expression / transcriptional control (in words): completely de-repressed

B2: m2: m2 mutant guanine sensing aptamer RNA (SEQ ID NO: 3); G37A in L2 and C61U in L3 (nucleic acid)
chain: B1 chain with G24A, A25G, C48U
modifications: RNA, backbone and methylation of C not given here
notes: G37A in L2 and C61U in L3
[1]
  KD off relative to wild-type: ~9 fold
[1]; 30° C., 50 mM K^+ Hepes pH 7.5, 100 mM KCl, 10 mM MgCl2, read-out: KD for guanine
  Kd: 36 ± 0.2 nM
[2]; transition C′A (merged C′B and BA), 3 mM Mg^2+, 200 nM G (rates at 6.1 pN)
  Equilibrium force F^eq: 6 pN and 6.0 ± 0.03 pN
[2]; [4]
  Folding rate kf: 0.53 ± 0.06 s⁻¹
  Transition distance ΔX: 12.4 ± 0.4 nm
  Unfolding rate ku: 0.8 ± 0.11 s⁻¹
[2]; transition C′A (merged C′B and BA), from data at 6.1 pN, 3 mM Mg^2+
  ΔG (0): −11.9 ± 0.6 kBT
Lac Z expression
  lac Z expression / transcriptional control (in words): completely de-repressed

B3: m8: m8 mutant guanine sensing aptamer RNA (SEQ ID NO: 9); A19G and U77C in the P1 hairpin (nucleic acid)
chain: B1 chain with A6G, A25G, U64C
modifications: RNA, backbone and methylation of C not given here
notes: A19G and U77C in the P1 hairpin
[2]; transition BA (P1 folding), 3 mM Mg^2+, 200 nM G (rates at 8.5 pN)
  Equilibrium force F^eq: 8.8 ± 0.2 pN
[2]; [5]
  Folding rate kf: 0.4 ± 0.05 s⁻¹
  Unfolding rate ku: 0.2 ± 0.05 s⁻¹
[2]; transition BA (P1 folding), F 8.5 pN, 3 mM Mg^2+, no helix width adjustment
  Transition distance ΔX: 9.5 ± 0.3 nm
[2]; transition BA (P1 folding), from data at 8.5 pN, 3 mM Mg^2+
  ΔG (0): −14.3 kBT and −14.3 ± 0.7 kBT
[2]; transition C′B (L2-L3 folding), 3 mM Mg^2+, 200 nM G (rates at 8.5 pN)
  Equilibrium force F^eq: 8.4 ± 0.3 pN
[2]; [6]
  Folding rate kf: 1.4 ± 0.2 s⁻¹
  Transition distance ΔX: 3.6 ± 0.2 nm
  Unfolding rate ku: 1.5 ± 0.2 s⁻¹
[2]; transition C′B (L2-L3 folding), from data at 8.5 pN, 3 mM Mg^2+
  ΔG (0): −7.4 ± 0.5 kBT
[2]; transition DC (P3 folding), 3 mM Mg^2+, 200 nM G (rates at 12.0 pN)
  Equilibrium force F^eq: 11.8 ± 0.1 pN
[2]; [7]
  Folding rate kf: 15.9 ± 0.4 s⁻¹
  Transition distance ΔX: 7.7 ± 0.2 nm
  Unfolding rate ku: 17.5 ± 0.5 s⁻¹
[2]; transition DC (P3 folding), from data at 12.0 pN, 3 mM Mg^2+
  ΔG (0): −15.5 ± 0.6 kBT
[2]; transition ED (P2 folding), 3 mM Mg^2+, 200 nM G (rates at 13.5 pN)
  Equilibrium force F^eq: 13.5 ± 0.03 pN
[2]; [8]
  Folding rate kf: 10.5 ± 0.4 s⁻¹
  Transition distance ΔX: 7.0 ± 0.2 nm
  Unfolding rate ku: 13.2 ± 0.5 s⁻¹
[2]; transition ED (P2 folding), from data at 13.5 pN, 3 mM Mg^2+
  ΔG (0): −16.0 ± 0.7 kBT
Lac Z expression
  lac Z expression / transcriptional control (in words): stringent control
